# Data: patent US7781394B2, “Methods for identifying anti-tumor and/or anti-angiogenesis drugs with deoxynucleoside 5′-monophosphate N-glycosidase as the target” (Institut Pasteur, priority 2006, dated 2010)
# B1: Rcl E 93A: dominant negative RCL mutant, Glu-93 replaced by Ala, overexpressed in Rat1a-MYC cells (protein, UniProt O35820 2-163, looked up, variant E93A)
# 5-hydroxymethyl-dUMP …: AASGEQAPCSVYFCGSIRGGREDQALYARIVSRLRRYGKVLTEHVADAELEPLGEEAAGGDQFIHEQDLNWLQQADVVVAEVTQPSLGVGYALGRAVALGKPILCLFRPQSGRVLSAMIRGAADGSRFQVWDYAEGEVETMLDRYFEAYLPQKTASSSHPSA
# Assays:
# [1] = test system: Rat1a-MYC cells; assay: In vitro growth of Rat1a-MYC cells overexpressing dominant negative Rcl E93A; format: cell-based, rat; settings: Rat1a-MYC cells overexpressing the mutant
# Excerpt: (§1) In addition to the studies on RCL (C6orf108) gain-of-function in tumorigenesis, we determined the effect of loss of RCL function on tumorigenesis with the Rat1a-Myc cells. We generated control Rat1a-MYC cells and Rat1a-MYC cells that overexpress the dominant negative Rcl E 93A mutant. Two independent control transfected cell pools and two independent Rcl E 93A Rat1a-MYC transfectant cell pools were studied (FIG. 7).
# [2] = test system: Rat1a-MYC cell xenografts; assay: Nude mouse xenografts of Rat1a-MYC-Rcl-E93A cells, tumorigenicity; format: in vivo; settings: two independent cell pools
# Excerpt: FIG. 7A. Immunoblot showing expression of Rcl-E93A protein in 293T cells; pPURO (pBabe-Puro) represents control transfected cells; none=untransfected cells. B. Immunoblot showing expression of Rcl and Rcl-E 93A in Rat1a-MYC cells (which have high levels of endogenous Rcl). Numbers at the top represents different cell pools. Numbers at the bottom represents normalized relative expression. C. Agarose gel showing expression of Rcl-E93A mRNA in transfectants by RT-PCR of control pPURO or Rcl-E93A expressing Rat1a-MYC cell pools. Signals are dependent on reverse transcriptase (not shown) D. Tumor sizes of pBABE (pools 1 and 2) control Rat1a-Myc cell pools compared with RCL E93A expressing Rat1a-MYC cell pools (E93A#1+E93A#4). Average tumor sizes determined by caliper are shown for groups of nine animals. Error bars are standard deviations.
# as §1
molecule,measurement,setting,value
B1,effect on growth rates in vitro,[1],does not affect growth rates
same,tumorigenicity of xenografts versus control cell pools,[2],remarkable decrease in tumorigenicity
